# Measured values taken from patent publication US11541126B1, “Anti-ASGR1 antibody TLR8 agonist comprising conjugates and uses thereof” (Silverback Therapeutics, Inc., priority 2020, dated 2023).
# Residue numbers refer to the chain shown, from its start. Numbers in names are those of the source.
# T1: HepG2 cells (which express ASGR1) (Homo sapiens, UniProt P07306)
# T1 construct: endogenous in cells; host or cells: HepG2
# T1 sequence (P07306 1-291): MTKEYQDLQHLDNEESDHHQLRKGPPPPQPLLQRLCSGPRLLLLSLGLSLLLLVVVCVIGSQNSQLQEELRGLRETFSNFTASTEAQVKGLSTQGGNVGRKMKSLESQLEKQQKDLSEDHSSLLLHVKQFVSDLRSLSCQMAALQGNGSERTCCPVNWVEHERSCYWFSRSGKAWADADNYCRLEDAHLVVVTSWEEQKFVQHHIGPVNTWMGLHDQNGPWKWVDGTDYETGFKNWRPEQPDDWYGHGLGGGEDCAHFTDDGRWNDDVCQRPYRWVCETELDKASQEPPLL
# B1: hzG2D-27: humanized G2D clone; "G2D VL region ... of clones 1-16, 19-21, 26-29, 31, and 33 ... grafted into the human germline sequence VKI-L1 with JK4" (antibody, V domains shown)
# VH: QVQLVQSGAEVKKPGASVKVSCKASGYTFTGYYMHWVRQAPGQRLEWMGRINPNNGATNYNQNFKDKASLTVDTSASTAYMELSSLRSEDTAVYYCTSVNFYYWGQGTTVTVSS
# VL: DIQMTQSPSSLSASVGDRVTITCKASQVINSYLSWFQQKPGKAPKSLIYRANTLVDGVPSRFSGSGSGTDFTLTISSLEYEDFATYYCLQYAEFPYTFGGGTKVEIK
# modifications: Synthetic sequence hzG2.47D VH R66K, V67A, T68S, I69L, R71V, A93T, R94S; Synthetic sequence hzG2.4D VLa Q79E, P80Y
# B2: hzG2D-30: humanized G2D clone; "G2D VL region ... of clones 22, 23, 30, 32, and 34-37 ... grafted into the human germline sequence VKI-O2 with JK4" (antibody, V domains shown)
# VH: B1 VH with R38K
# VL: B1 VL with F36Y, S46L, E79Q, Y80P
# modifications: Synthetic sequence hzG2.49D VH R38K, R66K, V67A, T68S, I69L, R71V, A93T, R94S; Synthetic sequence hzG2D VLb
# B3: hzG2D-31: humanized G2D clone; "G2D VL region ... of clones 1-16, 19-21, 26-29, 31, and 33 ... grafted into the human germline sequence VKI-L1 with JK4" (antibody, V domains shown)
# VH: B1 VH with L83F, S84H
# VL: B1 VL with E79Q, Y80P
# modifications: Synthetic sequence hzG2.50D VH R66K, V67A, T68S, I69L, R71V, L82F, S82aH, A93T, R94S; Synthetic sequence hzG2D VLa
# B4: hzG2D-32: humanized G2D clone; "G2D VL region ... of clones 22, 23, 30, 32, and 34-37 ... grafted into the human germline sequence VKI-O2 with JK4" (antibody, V domains shown)
# VH: B1 VH with L83F, S84H
# VL: B1 VL with F36Y, S46L, E79Q, Y80P
# modifications: Synthetic sequence hzG2.50D VH R66K, V67A, T68S, I69L, R71V, L82F, S82aH, A93T, R94S; Synthetic sequence hzG2D VLb
# B5: hzG2D-1: humanized G2D clone; "G2D VL region ... of clones 1-16, 19-21, 26-29, 31, and 33 ... grafted into the human germline sequence VKI-L1 with JK4" (antibody, V domains shown)
# VH: B1 VH with K67R, A68V, S69T, L70I, V72R, T97A, S98R, V110L
# VL: B1 VL with E79Q, Y80P
# modifications: Synthetic sequence hzG2D VH V109L; Synthetic sequence hzG2D VLa
# B6: hzG2D-29: humanized G2D clone; "G2D VL region ... of clones 1-16, 19-21, 26-29, 31, and 33 ... grafted into the human germline sequence VKI-L1 with JK4" (antibody, V domains shown)
# VH: B1 VH with R38K
# VL: B1 VL with E79Q, Y80P
# modifications: Synthetic sequence hzG2.49D VH R38K, R66K, V67A, T68S, I69L, R71V, A93T, R94S; Synthetic sequence hzG2D VLa
# B7: hzG2D-28: humanized G2D clone; "G2D VL region ... of clones 1-16, 19-21, 26-29, 31, and 33 ... grafted into the human germline sequence VKI-L1 with JK4" (antibody, V domains shown)
# VH: B1 VH
# VL: B1 VL with F71Y, T72S, E79Q, Y80P
# modifications: Synthetic sequence hzG2.47D VH R66K, V67A, T68S, I69L, R71V, A93T, R94S; Synthetic sequence hzG2.5D VLa F71Y, T72S
# B8: G2D-C (antibody, V domains shown)
# VH: EVQLQQSGPELVKPGASVKISCKASGYSFTGYYMHWVKQSHVKSLEWIGRINPNNGATNYNQNFKDKASLTVDKSSSTAYMEFHSLTSEDSAVYYCTSVNFYYWGQGTTLTVSS
# VL: DIKMTQSPSSMYASLGERVTITCKASQVINSYLSWFQQKPGKSPETLIYRANTLVDGVPSRFSGSGSGQDYSLTISSLEYEDLGIYYCLQYAEFPYTFGGGTKLEIK
# modifications: IgG1 kappa constant regions; Synthetic sequence G2D VH; Synthetic sequence G2D VL
# Biological target: T1, HepG2 cells (which express ASGR1)
# Test: Guava HepG2 cell binding screen of humanized anti-ASGR1 clones
# Design: unit not given here
# Conditions: humanized G2D clones (Table 5); two numbers per cell, not explained
# Experimental: Hybridomas producing monoclonal antibodies (mAbs) specific for human ASGR1 were prepared from Balb/C mice immunized with ASGR1-AviHis at a service provider using their propriety protocol. Antibody heavy and light chain sequences were obtained, amplified, and cloned. Clone supernatants containing the expressed mAbs were screened for binding to a human ASGR1-IgG1Fc fusion protein, and those with a positive signal as measured by enzyme linked immunosorbent assay (ELISA) were screened for cell binding on HepG2 cells (which express ASGR1).
row,Guava HepG2 Screen,Molecule
1,191/116,B1
2,198/115,B2
3,168/95,B3
4,167/103,B4
5,32/19,B5
6,189/108,B6
7,145/92,B7
8,187/145,B8
